Here are results for 30 sequences from the nanobody polyreactivity screen of Harvey et al. (2022).

The data set can be described thus: yeast display, Sf9 membrane polyspecificity reagent, FACS + sequencing; frameworks hold sequencing errors. Summed up: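 Using colony PCR, genes from sorted yeast display clones were amplified, then sequenced on MiSeq at 2 × 250 and filtered by CDR length. The clones had been stained with 10% biotinylated, detergent-solubilized Sf9 membrane reagent for 1 hour at 4 °C and sorted by FACS into low and high (top ~1%) gates on anti-HA and streptavidin fluorescence. Polyreactivity labels come from the gate of origin.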
Turning to “QVQLVESGGGLVQAGGSLRLSCAASGITLDVNAMGWYRQAPGKERELVADITWSDDSTYYADSVKGRFTISRDNAKNTVYLQMNSLKPEDTAVYYCAADVSVSFHPRGYDYWGQGTQVTVSS”, the “polyreactivity (PSR sort gate)” value is on record as “low polyreactivity”.
As for “QVQLVESGGGLVQAGGSLRLSCAASGITLGRYAMGWYRQAPGKERELVAAISRSGGSTYYADSVKGRFTISRDNEKNTVYLLMNSLKPEDTAVYYCNRRVYPTSDYDYWGQGTQVTVSS”, the “polyreactivity (PSR sort gate)” value is “high polyreactivity”.
Next, “QVQLVESGGGLVQAGGSLRLSCAASGITLPAYTMGWYRQAPGKERELVAAISWGGTSTYYADSVKGRFTISRDNAKNTVYLQMNSLKPEDTAVYYCNKAYATYPGYDYWGQGTQVTLSS”: “high polyreactivity”.
Next, “QVQLVESGGGLVQAGGSLRLSCAASGITLPYYAMGWYRQAPGKERELVAGISSRGGSTYYADSVKGRFTISRDNAKNTVYLQMNSLKPEDTAVYYCAAKVASTRLGPAYGYWGQGTQVTVSS”: “high polyreactivity”.
For the sequence “QVQLVESGGGLVQAGGSLRLSCAASGITLSRNAMGWYRQAPGKERELVAAITWRTDRTYYADSVKGRFTISRDNAKNTVYLQMNSLKPEDTAVYYCAARTTVSSARYDYWGQGTQVTVSS”, the “polyreactivity (PSR sort gate)” value is “high polyreactivity”.
Next, “QVQLVESGGGLVQAGGSLRLSCAASGITLSWYAMGWYRQAPGKERELVAGISGRGGRTYYADSVKGRFTLSRDNAKNTVYLQMNSLKPEDTAVYYCAADSPGYRSYDYWGQGTQVTVSS”: “high polyreactivity”; “QVQLVESGGGLVQAGGSLRLSCAASGITLWQYAMGWYRQAPGKERELVAGITDTGDSTYYADSVKGRVTISRDNAKNTVYLQMNSLKPEDTAVYYCAVPRSALLRAPYELYSWGQGTQVTVSS”: “low polyreactivity”.
Next, “QVQLVESGGGLVQAGGSLRLSCAASGITLYDNAMGWYRQAPGKERELVAAINVNDVSTYYADSVKGRFTISRDNAKNTVYLQMNSLKPEDTAVYYCAADSLYYGIGYWVVRYDYWGQGTQVTVSS”: “low polyreactivity”.
As for “QVQLVESGGGLVQAGGSLRLSCAASGITLYFYAMGWYRQAPWKERELVAAISRGGRTYYADSVKGRFTISRDNAKNTVYLQMNSLKPEDTAVYYCAARYTSEYSAFDYWGQGTQVTVSS”, the entry is “low polyreactivity”; as for “QVQLVESGGGLVQAGGSLRLSCAASGITLYGNVMGWYRQAPGKERELVAAISGGSTFYADSVKGRFTISRDNAKNTVYLQMNSLKPEDTAVYYCSAEGYGYGSNVPYYYWGQGTQVTVSS”, “low polyreactivity”.
As to “QVQLVESGGGLVQAGGSLRLSCAASGITLYRYAMGCYRQAPGKERELVADISSGGGTTYYADSVKGRFTISRDNAKNTVYLQMNSLKPEDTAVYYCAADYGFRYPLYDYWGQGTQVTVSS”, the “polyreactivity (PSR sort gate)” value is “low polyreactivity”.
As for “QVQLVESGGGLVQAGGSLRLSCAASGITLYRYAMGWYRQAPGKERELVADISSGGGTTYYADSVKGRFTISRDNAKNTVYLQMNSLKPEDTAVYYCAADYGFRYPLYDYWGQGTQVTVSS”, the entry is “low polyreactivity”; as for “QVQLVESGGGLVQAGGSLRLSCAASGITLYWYAMGWYRPAPGKERELVAAISRRGGTTYYADSVKGRFTISRDNAKNTVYLQMNSLKPEDTAVYYCAKAPDTQTSWSRQEGNYWGQGTQVTVSS”, “low polyreactivity”.
Regarding “QVQLVESGGGLVQAGGSLRLSCAASGITSDQNAMGWYRQAPGKERELVAAISWSGGSTYYADSVKGRFTISRDNAKNTVYLQMNSLKPEDTAVYYCAADIYTAYYEFDYWGQGTQVTVSS”, the “polyreactivity (PSR sort gate)” value is “low polyreactivity”.
For “QVQLVESGGGLVQAGGSLRLSCAASGITSGNNALGWYRQAPGKERELVAALSWTGGSTYYADSVKGRFTISRDNAKNTVYLQMNSLKPEDTAVYYCAAKGLRYRDIDYDYWGQGTQVTVSS”, the “polyreactivity (PSR sort gate)” value is listed as “low polyreactivity”.
Next, “QVQLVESGGGLVQAGGSLRLSCAASGITSRFNAMGWYRQAPGKERELVAAISSRGTSTYYADSVKGRFTISRDNAKNTVYLQMNTLKPEDTAVYYCAVSQRAPKFPGDYWGQGPQVTVSS”: “high polyreactivity”; “QVQLVESGGGLVQAGGSLRLSCAASGITSRQYAMGWYRQAPGKERELVAAISFSGGRTYYADSVKGRFTISRDNAKNTVYLQMNSLKPEVTAVYYCATRNRYSPRDYWGQGTQVTVSS”: “high polyreactivity”.
With “QVQLVESGGGLVQAGGSLRLSCAASGITSTVYAMGWYRQAPGKERELVAGISWSTSSTYYADSVKGRFTISRDNAKNTVYVQMNSLKPEDTAVYYCAKAGAYKYGYWGQGTQVTVSS”, the “polyreactivity (PSR sort gate)” value is on record as “high polyreactivity”.
As for “QVQLVESGGGLVQAGGSLRLSCAASGITSYGYAMGWYIQAPGKERELVAAISRSGGTTYYADSVKGRFTISRDNAKNTVYLQMNSLKPEDTAVYYCALGKSHRGGGVSKFNYWGQGTQVTVSS”, the entry is “low polyreactivity”; as for “QVQLVESGGGLVQAGGSLRLSCAASGITSYYYTMGWYRQAPGKERELVAAITSGGSTYYADSVKGRFTISRDNAKNTVYLQMNSLKPEDNAVYYCTADNPRYRGSKYGPYDDYNYWGQGTQVTVSS”, “low polyreactivity”; as for “QVQLVESGGGLVQAGGSLRLSCAASGITVFENAMGWYRQAPGKERELVAAISYSGGSTYYADSVKGRFTISRDNAKNTVYLQMNSLKPEDTAVYYCAADWYYFLYIRNRWGYGYWGQGTQVTVSS”, “high polyreactivity”.
On to “QVQLVESGGGLVQAGGSLRLSCAASGITVGYYAMGWYRLAPGKERELVAAITRGGGSTYYADSVKGRFTISRDNAKYTVYVQKNSLKPEDTAVYYCAAKTSGPGAGHDYWGQGTQVTVSS”, for which the “polyreactivity (PSR sort gate)” value is given as “high polyreactivity”.
As for “QVQLVESGGGLVQAGGSLRLSCAASGITYWKYAMGWYRQAPGKERELVAAISKSGGSTYYADSVKGRFTISRDNAKNTVYLQMNSLKPEDTAVYYCAAVPGPASKYGYWGQGTQVTVSS”, the entry is “high polyreactivity”; as for “QVQLVESGGGLVQAGGSLRLSCAASGKTFRYNAMGWYRQAPGKERELVAAISRRGGSTYYADSVKGRFTISRDNAKNTVYLQMNSLKPEDTAVYYCNAGRTAENEYWGQGTQVTVSS”, “high polyreactivity”.
Next, “QVQLVESGGGLVQAGGSLRLSCAASGLIFAGYTMGWYRQAPGKERELVAAISISGGSTYYADSVKGRFTISRDNAKNTVYLQMNSLKPEDTAVYYCASKRRSWPPTYYYWGQGTQVTVSS”: “high polyreactivity”; “QVQLVESGGGLVQAGGSLRLSCAASGLIFAIYAMGWYRQAPGNERELVAAIRWSGASTYADSVKGRFTISRDNAKNTVYLQMNSLKPEDTAVYYCAADDLLDYDYWGQGTQVTVSS”: “low polyreactivity”.
As for “QVQLVESGGGLVQAGGSLRLSCAASGLIFARNAMGWYRQAPGKERELVAAITYSGSRTYYADSVKGRFTISRDNAKNTVYLQMNSLKPEDTAVYYCAARHRYSAVTEYNYWGQGTQVTVSS”, the entry is “high polyreactivity”; as for “QVQLVESGGGLVQAGGSLRLSCAASGLIFATYAMRWYRQAPGKERELVADITTTGSTYYADSVKGRFTISRDNAKNTVYLQMNSLKPEDTAVYYCAAYGRWLTWYDFDYWGQGTQVTVSS”, “high polyreactivity”; as for “QVQLVESGGGLVQAGGSLRLSCAASGLIFAYYAMGWYRQAPGKERELVAAISWSGDNTYYADSVKGRFTISRDNAKNTVYLEMNSLKPEDTAVYYCNVDTYGAWSWYYGLHHMDYWGQGTQVTVSS”, “low polyreactivity”.
As for “QVQLVESGGGLVQAGGSLRLSCAASGLIFAYYTMGWYRQAPGKERELVAAITSGVRTYYADSVKGRFTISRDNAKNTVYLQMNSLKPEDTAVYYCAAGLSGSTQATIFWGYYYWGQGTQVTVSS”, the “polyreactivity (PSR sort gate)” value was “low polyreactivity”.
